Data: patent publication US20140248684A1, “COMPOSITIONS AND METHODS FOR THE PRODUCTION AND USE OF HUMAN CHOLINESTERASES” (priority 2011, published 2014)
Entries after “also recorded” stand apart in the source; their conditions may differ. Read-outs that look alike come from different tables or passages of the source.

What was measured:
guinea pigs = test: Succinylcholine lethality in guinea pigs; format: in vivo; conditions: intravenous
Source text: To further understand the effect and kinetics of BChE-mediated SC detoxification using continuous vital sign monitoring, the inventors moved to a larger rodent model of SC toxicity. […] At no point following loss of measurable pulse and venous oxygen saturation did these signs return in animals receiving SC 0.9% saline.

mice = mice (Lewis, 1996); cited from earlier work
[1] = reported value (Sun et al., 2002); read-out: KM, cocaine hydrolysis; cited from earlier work
[2] = previously published (Lockridge, 1990), thioester analog assay, cited from earlier work
[3] = Succinylcholine hydrolase activity assay (96-well, choline oxidase/peroxidase); format: biochemical
Method: Assay of butyrylcholine hydrolysis followed the method of Ellman as described in (Geyer et al., 2010). Succinylcholine hydrolase activity was monitored by the method of George and co-workers (George et al., 1988) with modifications to fit a 96-well plate format. Briefly, our standard succinylcholine-hydrolysis buffer contained 100 mM NaH2PO4/Na2HPO4 buffer pH 7.5, 0.77 mM phenol, 0.15 mM 4-aminoantipyrine, 1 U/mL choline oxidase, and 1.2 U/mL horse raddish peroxidase type I. Appropriate volumes of 10× stock solutions (in 100 mM NaH2PO4/Na2HPO4 buffer pH 7.5) were pre-mixed and dispensed at 160 μL aliquotes onto 96-well plates followed by addition of the substrate succinylcholine chloride (20 μl, final concentrations as indicated). Reactions were started by addition of pBChE (4.74 nM) to yield a final well volume of 200 μl. Hydrolysis was monitored by recording absorbance changes at 500 nm. Self hydrolysis rates were measured on samples that contained no enzyme and were subtracted from the enzymatically catalyzed reaction rates. A choline standard curve was similarly created by using the same assay except that choline chloride replaced succinylcholine (final concentration range of 10-100 μM).
Kinetic analysis was done according to Radic et al. (Radic et al., 1993) as follows. Initial enzyme velocity, V0, was plotted as a function of substrate concentration and the results were fitted by nonlinear regression using GraphPad Prism to the following equation: […]
where [SC] is the concentration of SC, Vmax is maximal velocity, KM is the Michaelis-Menten constant, KSS is the dissociation constant of substrate from the enzyme's peripheral binding site, and b a factor that reflect the efficiency of hydrolysis of the substrate in the presence of another substrate molecule bound at the peripheral site (with substrate activation when b>1).

SC-induced apnea [4] = test: Reversal of succinylcholine-induced apnea in mice; format: in vivo, Male FVB/N mice (Mus musculus)
Method: Mouse experiments were conducted as follows. Male FVB/N mice (Mus musculus, 8-12 weeks old) were anesthetized by injection of ketamine/xylazine/acepromazide cocktail at the dose of 0.05 mL per 25 g of total body weight (concentrations were, respectively 21 mg/mL, 2.4 mg/mL, and 0.3 mg/mL). Anesthetized mice were assessed for respiratory rate by counting respirations for 30 seconds using a Littman model 3000 electronic stethoscope placed on the mouse left mid axillary line and extrapolating the per minute rate. Mice were then injected intravenously (tail vein) with 1 mg/kg succinylcholine (time 0 min). At time+3 min mice were injected with pBChE (0.6 mg/kg, ˜15 Upper animal) in 0.9% saline (or 0.9% saline vehicle control) and respiratory rate was obtained as above at the indicated time points. At time+15 minutes all surviving mice were euthanized by CO2 asphyxiation and subsequent cervical dislocation. At no time during the experiment did the mice receive any other therapy including, but not limited to, airway protection/management, artificial ventilations, compressions, or any pharmacological assistance.
Statistical analyses were carried out using the GraphPad Prism software. Log-rank (Mantel-Cox) test was used to determine significance of the difference between survival curves.

SC-induced apnea [5] = test: Reversal of succinylcholine-induced apnea in guinea pigs; format: in vivo, Male Hartley guinea pigs (Cavia porcellus)
Method: Guinea pig experiments were conducted as follows. Male Hartley guinea pigs (Cavia porcellus, 8 weeks old) were anesthetized with 90 mg/kg ketamine and 10 mg/kg xylazine. Once anesthetized, baseline heart rate (beats per minute) and Sp02 (%) were obtained using a Surgivet Plus Veterinary Anesthesia and Monitoring Module, model #V3404. Guinea pigs were then injected intravenously (leg vein) with 0.334 mg/kg SC (time 0). Heart rate and Sp02 were obtained every minute throughout the course of the experiment. At time+1 min, groups of three apneic guinea pigs were injected with either pBChE (0.19 mg/kg, ˜48 Upper animal) in 0.9% saline (or 0.9% saline vehicle control). At time+15 minutes all surviving guinea pigs were euthanized by CO2 asphyxiation and subsequent cervical dislocation. As above, guinea pigs received no additional care or therapy during experimentation.
Statistical significance of differences between means of heart rate and Sp02 was tested using 1-way analysis of variance (ANOVA) followed by Bonferronits Multiple Comparison Test.

[6] = 0.334 mg/kg SC i.v., 48 U BChE at 1 min, 3 min following SC injection

C[N+](C)(C)CCOC(=O)CCC(=O)OCC[N+](C)(C)C [SC, succinylcholine]
LD100 (guinea pigs): 0.334 mg/kg | LD50 (mice): 0.28 mg/kg

B1: WT BChE (protein, UniProt P06276 29-602, looked up)
Cholinesterase: EDDIIIATKNGKVRGMNLTVFGGTVTAFLGIPYAQPPLGRLRFKKPQSLTKWSDIWNATKYANSCCQNIDQSFPGFHGSEMWNPNTDLSEDCLYLNVWIPAPKPKNATVLIWIYGGGFQTGTSSLHVYDGKFLARVERVIVVSMNYRVGALGFLALPGNPEAPGNMGLFDQQLALQWVQKNIAAFGGNPKSVTLFGESAGAASVSLHLLSPGSHSLFTRAILQSGSFNAPWAVTSLYEARNRTLNLAKLTGCSRENETEIIKCLRNKDPQEILLNEAFVVPYGTPLSVNFGPTVDGDFLTDMPDILLELGQFKKTQILVGVNKDEGTAFLVYGAPGFSKDNNSIITRKEFQEGLKIFFPGVSEFGKESILFHYTDWVDDQRPENYREALGDVVGDYNFICPALEFTKKFSEWGNNAFFYYFEHRSSKLPWPEWMGVMHGYEIEFVFGLPLERRDNYTKAEEILSRSIVKRWANFAKYGNPNETQNNSTSWPVFKSTEQKYLTLNTESTRIMTKLRAQQCRFWTSFFPKVLEMTGNIDEAEWEWKAGFHRWNNYMMDWKNQFNDYTSKKESCVGL
Km [1]: 4.5 µM | Kcat, succinylcholine [2]: 10 s⁻¹ | Km ([2]; read-out: KM, succinylcholine): 35 µM

B2: pBChE (protein, UniProt P06276 29-602, looked up)
Cholinesterase: B1 Cholinesterase
turnover number Kcat=Vmax/[BChE]T, succinylcholine hydrolysis ([3]; [BChE]=4.74 nM): 8.6 ± 0.55 s⁻¹ | Vmax, succinylcholine hydrolysis ([3]; [BChE]=4.74 nM, ±SEM, nonlinear regression): 2.45 ± 0.16 µM/min | Kss (dissociation constant of substrate from peripheral binding site) ([3]; ±SEM, nonlinear regression): 2.0 ± 0.3 mM | Km ([3]; ±SEM, nonlinear regression, read-out: KM, succinylcholine hydrolysis): 57 ± 7 µM | b (substrate activation factor) ([3]; ±SEM, substrate activation when b>1): 2.9±0.1 | survival (SC-induced apnea [4]; 1 mg/kg SC i.v., 15 U (0.6 mg/kg) pBChE at 3 min, three mice): survived; also recorded: survival of all pBChE-treated mice | protection from SC-induced apnea (SC-induced apnea [4]; respiration rate monitored, FIG. 19): protects mice from SC-induced apnea | heart rate (SC-induced apnea [5]; [6]): at baseline | spontaneous respirations (SC-induced apnea [5]; [6]): return of spontaneous respirations | venous oxygenation (SC-induced apnea [5]; [6]): 49% | heart rate response (SC-induced apnea [5]; 0.334 mg/kg SC i.v., 48 U BChE at 1 min, 5 min post SC injection): post-anoxic tachycardia | time by which all vital signs had returned to baseline (SC-induced apnea [5]; 0.334 mg/kg SC i.v., 48 U BChE at 1 min, time post SC injection): ≤ 7 min | protection from high-dose SC-induced apnea (SC-induced apnea [5]; high-dose SC, FIG. 21): fully protects | return of normal vital signs (SC-induced apnea [5]; sublethal doses of SC, FIG. 20): promotes return of normal vital signs
